# Experimental data taken from the nanobody polyreactivity screen of Harvey et al. (2022).
# Assay: yeast display, Sf9 membrane polyspecificity reagent, FACS + sequencing; frameworks hold sequencing errors
# How it was run: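 A nanobody's polyreactivity label depends on the gate it was sorted from. Yeast display cells were stained with 10% biotinylated, detergent-solubilized Sf9 membrane reagent for 1 hour at 4 °C, enriched on streptavidin microbeads and sorted by FACS. The low and high (top ~1%) gates were set on anti-HA fluorescence for expression and streptavidin fluorescence for reagent binding.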
row,Sequence,polyreactivity (PSR sort gate)
1,QVQLVESGGGLVQAGGSLRLSCAASGFIFLYNVMGWYRQAPGKERELVAAISWRGGTYYAHSVKGRFTISRDNAKNTVYLQMNSLKPEDTAVYYCAKKQRYYGRMDYWGQGTQVTVSS,high polyreactivity
2,QVQLEESGGGLVQAGGSLRLSCAASGRTINGNTMGWYRQAPGKERELVAVIDWSGGSTYYADSVKGRFTISRDNAKNTVYLQMNSLKPEDTAVYYWNAETRDPILYGEYDYWGQGTQVTVSS,low polyreactivity
3,QLQLVESGGGVVQAGGSLRLSCAATGRIDWNTMGWYRQAPGKERELVASISTGGGRTYYADSVKGRFTISRDNAKNTVYLQMISLKPEDTAVFYCNAVRTVWYRYEYGYWGQGTQVTVSS,high polyreactivity
4,QVQLVESGGGLVQAGGSLRLSCDASGRTFRYNAMGWYRQAPGKERELVAAISTRGGSTYYADSVKGRFTISRDNAKNTVYLQMNSLKPEDTAVYYCAADGRYAYGYNHWGQGTQVTVSS,low polyreactivity
5,QVQLVESGGRLVQAGGSLRLSCAASGSIISWYAMGWYRQAPGKERELVAAISNSGGSTYYADSVKGRFTISRDNAKNTVYLQMNSLKPEDTAVYYCAAYDGDTYDWGQGTQVTVSS,high polyreactivity
6,QVQLVESGGGLVQAGGSLRLSCAASGRTFFPNEMGWYRQAPGKERELVAAITSAGSTNYADSVKGRFTISRDNEKTTVYLQMNSLKPEETAVYYCAAVYPPIHQRYIVDYWGQGTQETVSS,low polyreactivity
7,QVQLVESVGGLVQAAGSLRLSCAASGRIFSPYAMGWYRQAPGKESELVAAISWSGGTTYYADSVKGRFTISRDNAKNTVYLQMNSLKPEDTAVYYCAADLGYQDPLDYYWGQGTQVTVSS,high polyreactivity
8,QVQLVESGGGLVQAGGSLRLSCAASGSIFLGYTMGWYRPAPGKERELVAAISTRGGSTYYADSVKGRFTISRDNAKNTVYLQMNSLKPEDTAVYYCKARSRGRASGYDYWGQGTQVTVSS,high polyreactivity
9,QVQLVDSGGGLVQAGGSLRLSCAASGSIFPPYAMGWYRQAPGKERELVARISWSTSSTNYADSVKGRFTISRDNAKNTVYLQMNSLKPEVTAVYYCAADYYVFPGYDYWGQGTQVTVSS,high polyreactivity
10,QFQLVDSRRGLVQAGGSLRVSCAASGSTFYIYAMGWSRQAPGKERELVARISGSGGSTYYADSVKGRFTISRDNAKNTVYLQMNSLKPEDTAVYYCAADDIYKYYQYYAFPYYRYDDWGQGTQVTVSS,low polyreactivity
11,QVQLVESGGGLVQAGGSLRLSCAASGFTFGRYAMGWYRPAPGKERELVAAISRSGGRTYYADTVKGRFTISRDNAKNTVYLQMNSLKPEHTAVYYCAAYGGVEDDYWGQGTQVTVSS,low polyreactivity
12,QVQLVESGGGLVQAGGSLRLSCAASGRTFTRNAMGWYRQAPGKDRELVAAISYSGGSTYYADSVKGRFTISRDNAKNTVYLQMNSLKPEDTAVYYCNAATSRRSIRYDYWGQGTQVTVSS,high polyreactivity
13,QVQLVESGGGLVQAGGSLRLSCAASGSTFFGNAMGWYRQAPGTERELVAAIRFSGVGTYYADSVKGRFTISLDNAKNTVYLQMNSLKPEDTAVYYSAAESYYKYYWGQGTQVTVSS,low polyreactivity
14,QVQLVESGGGLVQAGGSLRLSCAASGFIFGGYAMGWYRHAPRKERELVAAISRSGGSTYYADSVKGRFTISRDNAKNTVYLQMNSLKPEDTAVYYCNAVPRRQGFNYWGQGTQVSVSS,high polyreactivity
15,QVQLVESGGGLVQAGGSLRLSCAASGSIFGANTMGWYRQAPWKERELVAGITSRARTYYADSVKGRFTISRDNAKNTVYLQMNSLKPEDTAVYYCAAKYAWRRYGYWGQGTQVTVSS,high polyreactivity
16,QVHLVESGGGLVQAGGSLRLSCAASGFTFRYYTMGWYRQAPGKERELVARITWSGGITYYADSVKGRFTISRDNAKNTVYLQMNSLKPEDTAVYYCNAERRWAAYDYWGQGTQVTVSS,high polyreactivity
17,QVQLVESGGGLVQAGGSLRLSCAASGSTFLYYAMGWYRQAPGKEREFVAAISISGGSTYYADSVKGRFTISRDNAKNTVYLHMNSLKPEDTAVYYFAARKKEYKPGNYWGQGTQVTVSS,low polyreactivity
18,QVQLVESGGGLVQAGGSLRLSCAASGITFGRNTMGWYRQAPGKERELVAAIDSGGNTYADSVKWRFTISRDNAKNTVYLQMNSLKPEDTAVYYCAADIGSWYDYWGQGTQVTVSS,low polyreactivity
19,QVQLVESGGGLVQAGGSLRLSCAASGSTIWIYAMGWYRQAPGKERELVAAINWSGGNTYYADSVKGRFTISRDNAKNTVYLQMNSLKPEDTAVYYCAAAFYIYGVEGDYWGQGTQVTVSS,low polyreactivity
20,QVQLVESGGGLVQAGGSLRLSCAASGSTFFANAMGWYRQAPGKERELVAAITSGGSTYYADSVKVRFTISRDNAKNTVYLQMNSLKPEDTAVYYCAAPLCGGARWGRWWLYDSWGQGTQVNVSS,low polyreactivity
21,QVQLVESGGGLVQAGGSLRLSCAASGFTFQNYAMGWYSQAPGKERELVAAITYSGGSTYYADSVKGRFTISRDNAKNPVYLQMHSLKPEDTAVYYCAKKASYWWGYEYWGQGTQVTVSS,low polyreactivity
22,QVQLVESCGGLVQAGGSLRLSCAASGRTIASYAMGWYRQAPGKERELVAAITSGGSTYYADSVKGRFTISRDNAMNTVYLQMNSLKPEDTAVYYCARKHAIWRGYDYWGQGTQVTVSS,low polyreactivity

row,Sequence,polyreactivity (PSR sort gate)
1,QVQLVESGGGLVHAGGSLRLSSAASGLIFGWYAMGWYRPAPGKEREFVASIRDGGGSTYYADSVNGRFTISRDNANNTVFLEMHSLKPEDSAVYYFAADRYPWHLQYVEYDSDFWGQGTQVTVSS,low polyreactivity
2,QVQLVESGGGLVQAGGSLRLSCAASGSTFPRNAMGWYRQAPGKERELVATITSSGGGTYYADSVKGRFTISRDNAKNTVYLQMNSLKPEDTAVYYCNVEVHPYYWVDNFHRFPVLHNYWGQGTQVTVSA,low polyreactivity
3,QVQLVESGGGLVQAGGSLRLSCAASGSIFIYYAMGWYRHAPGKERELDAAISNGGSTNYADSVKGRFTISRDNGKNTVYLQLNRLKPEDTAVYYCNARLERTPSLYLYGSWGQGTQVTVSS,low polyreactivity
4,QVQLVESGGGLVQAGGSLRLSCAASGRIFIWYTMGWYRQAPGNERELVASITGGGGSTYYADSVKGRFTISRDNAKNTVYFQMNSLKPEETAVYDCNAVYRRRYDYWGQGTQVTVSS,high polyreactivity
5,QVQLVESGGGLVQAGGSLRLSCGASGSTSDIYAMGWYRQAPGKESEFGAAISLTGGTTYYADSVKGRFTISCENAKNTVYLQMNSLKQEDTAVYYCNADVGWWGYDDDYWGQGTQVTVSS,high polyreactivity
6,QVQLVESGGGLVQAGGSLRLSCAASGRTFPGNAMGGDKQAPGKERELVASINGRTTRTYYADSVKGRFTISRDNAKNTVYLQMTSLKPEDTAVYYCAADPPGYVYGKRYYWGQGTQVTVSS,high polyreactivity
7,QVQLVESGGGLVQAGGSLRLSCAASGITFDKYALGWYRQAPGNERELVAAISGSDGSTYYADSVKGRFTISRDNAKNTVYLQNNSLKPEDTAVYYCAAESEYAGTYEYDYWGQGTQVTVSS,low polyreactivity
8,QVQLVESGGGLVQAGGSLRLSCAASGRTFWSNAMGWSRQAPGKERELVAAITWSGGSTSYADSVKGRFTISRDNAKNTVYLQMNSLKTEDTAVYYCAAGKGVELAKLDYWGQGTQVTVSS,low polyreactivity
9,QVQLVESGGGLVQAGGSLRLSCASSGTTFQYYAMGSYRQAPGKERELVARISDSSANTYYADSVNGRFTISRDNAMNTVYLQMNSLKPEDTAVYYCAASVPYKFYCVVSVRYEYWGQGTQVTVSS,low polyreactivity
10,QVQLVESGGGLVQAGGSLRLSCAASGSMFEGYAMGRYLQAPGKVRELVAAMTWSSGSTYYADSVKGRFTISRDNAKNTVYLQMNSLKPEETAVYSCAVDGGDFSSYGYWGQGTQVTVSS,low polyreactivity
11,QVQLVESGGGLVQAGGSLRLSCAASGGTFYYYAMGWSRQAPGKERELVAAISWSGVSTSYADSVKGRFTISRDNANNTVYLQMNSLKPEDTAVYYCAAGPFYYTGYEGVYWGQGTQVTVSS,high polyreactivity
12,QVQLVESGGGLVQAGGSLRLSCGASGRIFPGNAMGWYRQATGKERELVAGISFSGGRTYYADSVKGRFTISRDNAKNTVYLQMNSLTPEDSAVYYCATKYLQHWWRYDYWGQGTQVTVSS,low polyreactivity
13,QVQLVESGGGLVQAGGSLRLSCAASGLTFIPNAMGWDRQAPGKERELVAAISGTGGSTYYADSVKGRFTISRDNAKNTVYLQMNSLKPEDTAVYYCAARRRYKSGYWGQGTQVTVSS,high polyreactivity
14,QVQLVESGGGLVQAGGSLRLSCAASGRIFKRNTMGWYRQAPGKERELVAAITYSGITYYADSVKGRFTISRDNAKNTVYLQMNSLKPEDTAVYYCAKVLYPIGSPRFEYWGQGTQVTVSS,low polyreactivity
15,QVQLVESGGGLVQAGGSLRLSCAASGSTFWSYAMGWYRQAPGKERELVAAISYRGTRTRYADSVKGRFTISRDNAKNTVYLQMNSLKPEDTAVYYCAADRTFYGIRFDYWGQGTQVTVSS,high polyreactivity
16,QVQLVESGGGLVQAGGSLRLSGAASGRTCGTNAMGWSRQAHGKERELVAAISSSGGSTYYADSVKGRFTISRDNAKNTVYLQMISQKPEDTAVYYCAQGWHRGVGFGYWGQGTQVTVSS,high polyreactivity
17,QVQLVESGGGLVQAGGSLRLSCAASGSIFDRYAMGWYRQAPGKERELVAAISTGGSTNYADSVKGRFTISRDNAKNSVYLQMNSLKPEDTAVYYCAARYLYRMYYWGQGTQVTVSS,low polyreactivity
18,QVQLVESGGGLVQAGGSLRLSCAASGSIFNLNAMGWYRQAPGTEREFVAGITYSAGRTYYADSVKGRFTISRDNAKNTVYLQMNSLKPVDTAVYYCAARIYSKFTSYGILDSWGQGTQVTVSS,high polyreactivity
19,QVQLVESGGGLVQAGGSLRLSCAASGNTFVYYNMGWYRQAPGKERELVAAINWSGGSTYYADSVKGRFTISRDNAKNTVYLQMNSLKPEDTAVYYCAADTSYYPYEYWGQGTQVTVSS,high polyreactivity
20,QVQLVESGGGLVQAVGSLRLSCAASGRTFYRYAMGWYRQAPGKERELVASITRRGGNTYYADSVKGRFTISRDNAKNTVYLQMNSLKPEDTAVYYCAAQSLHPGNWGQGTQVTVSS,high polyreactivity
21,QVQLVESGGGLVQAGGSLRLSCAASGFIFASYAMGWYRQATGKERELVAAITQSGGITYYADSVKGRFTISRDNAKNTVYLQMNSLKPEDTAVYYCNTPLMKRTTRGRERNYWGQGTQVTVSS,low polyreactivity
